Laboratory results published in article doi:10.1101/2025.11.05.686744 (bioRxiv, 2025).

Key:
[1] = target: Spindlin1 (residues 50-262) (human, UniProt Q9Y657 50-262); assay: NMR titration
[2] = target: Spindlin1^C96A/H252F (residues 50-262) (human, UniProt Q9Y657 50-262, C96A | H252F); assay: NMR titration
Sequence of Spindlin1^C96A/H252F (residues 50-262) (Q9Y657 50-262 C96A/H252F): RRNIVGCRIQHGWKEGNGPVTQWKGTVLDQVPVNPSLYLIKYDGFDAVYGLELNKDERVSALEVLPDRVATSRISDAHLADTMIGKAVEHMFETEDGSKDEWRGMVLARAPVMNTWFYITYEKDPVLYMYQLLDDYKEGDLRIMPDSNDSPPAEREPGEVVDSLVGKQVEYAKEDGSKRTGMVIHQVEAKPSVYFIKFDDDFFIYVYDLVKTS

Sequence of Spindlin1 (residues 50-262) (Q9Y657 50-262): as the sequence (Q9Y657 50-262 C96A/H252F) above, with A47C, F203H counted along it

Row | Binder | binding result [1] | binding result [2]
1 | HBx_(1-120) protein genotype D (Hepatitis B virus protein X, short isoform) (domain or fragment) MAARLCCQLDPARDVLCLRPVGAESCGRPFSGSLGTLSSPSPSAVPTDHGAHLSLRGLPVCAFSSAGPCALRFTSARRMETTVNAHQILPKVLHKRTLGLSAMSTTDLEAYFKDCLFKDW | binds | 
2 | HBx_(1-120)^C61A/C69A (domain or fragment, Hepatitis B virus genotype D, UniProt P03165 1-120, looked up) MAARLCCQLDPARDVLCLRPVGAESCGRPFSGSLGTLSSPSPSAVPTDHGAHLSLRGLPVAAFSSAGPAALRFTSARRMETTVNAHQILPKVLHKRTLGLSAMSTTDLEAYFKDCLFKDW |  | binds
